According to US20250163163A1 (Chugai, published 2025):

T1: human IL-31R (IL-31 receptor) expressed on BaF cells (BaF/hIL-31R cells) (human, UniProt Q8NI17 20-732)
T1 sequence (looked up): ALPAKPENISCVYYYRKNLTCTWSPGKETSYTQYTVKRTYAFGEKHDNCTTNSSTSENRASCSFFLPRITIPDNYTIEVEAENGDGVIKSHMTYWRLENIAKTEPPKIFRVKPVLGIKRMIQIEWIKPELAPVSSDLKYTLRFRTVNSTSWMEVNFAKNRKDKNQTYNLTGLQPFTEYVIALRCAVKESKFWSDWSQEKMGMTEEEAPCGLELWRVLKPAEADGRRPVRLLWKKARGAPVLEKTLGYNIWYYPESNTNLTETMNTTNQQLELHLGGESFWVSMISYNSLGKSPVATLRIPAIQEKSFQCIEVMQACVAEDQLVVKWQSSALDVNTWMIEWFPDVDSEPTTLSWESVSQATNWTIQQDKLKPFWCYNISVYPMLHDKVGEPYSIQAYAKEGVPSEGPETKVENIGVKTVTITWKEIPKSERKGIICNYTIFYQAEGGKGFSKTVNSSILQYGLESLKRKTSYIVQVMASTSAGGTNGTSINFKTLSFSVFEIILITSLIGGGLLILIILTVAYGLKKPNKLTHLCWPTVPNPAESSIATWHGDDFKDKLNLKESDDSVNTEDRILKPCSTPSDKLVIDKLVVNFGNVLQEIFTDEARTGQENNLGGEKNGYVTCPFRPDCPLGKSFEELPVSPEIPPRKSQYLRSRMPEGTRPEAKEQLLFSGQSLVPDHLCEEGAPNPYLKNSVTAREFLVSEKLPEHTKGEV

B1: nemolizumab AE-HPLC fraction, peak b8 (Pre-Region 2), predominantly the succinimide form (Asu103 variant) (antibody, V domains shown)
VH: QVQLVQSGAEVKKPGASVKVSCKASGYTFTGYIMNWVRQAPGQGLEWMGLINPYNGGTDYNPQFQDRVTITADKSTSTAYMELSSLRSEDTAVYYCARDGYDDGPYTLETWGQGTLVTVSS
VL: DIQMTQSPSSLSASVGDRVTITCQASEDIYSFVAWYQQKPGKAPKLLIYNAQTEAQGVPSRFSGSGSGTDFTLTISSLQPEDFATYYCQHHYDSPLTFGGGTKVEIKR
modifications: Asp103 (Kabat numbering position 99) altered to a succinimide residue (Asu103) at a ratio of 54.0% on peptide basis; Asp99 (Kabat 95) to succinimide 2.7%
B2: nemolizumab AE-HPLC fraction, peak a5 (Post-Region) (antibody, V domains shown)
VH: B1 VH
VL: B1 VL
modifications: Deamidation at Asn55 in HC; ratio not given
B3: nemolizumab AE-HPLC fraction, peak a4 (Post-Region) (antibody, V domains shown)
VH: B1 VH
VL: B1 VL
B4: nemolizumab AE-HPLC fraction, peaks b4 + b5 + b6 + b7 (Pre-Region 2) (antibody, V domains shown)
VH: B1 VH
VL: B1 VL
modifications: Asu103 in HC (succinimide at Asp103); ratio not given
B5: nemolizumab AE-HPLC fraction, peak b1 (Pre-Region 1), isoAsp form (antibody, V domains shown)
VH: B1 VH
VL: B1 VL
modifications: IsoAsp in CDR (Asp99/102/103) in HC, site not identified: two isoAsp residue-containing peptides at 11.6% and 2.7%; Asu99 1.1%, Asu102 0.2%, Asu103 4.7%
B6: nemolizumab AE-HPLC fraction, peaks b2 + b3 (Pre-Region 1) (antibody, V domains shown)
VH: B1 VH
VL: B1 VL
modifications: Asu103 in HC; ratio not given
B7: nemolizumab AE-HPLC fraction, peak a1 (Post-Region) (antibody, V domains shown)
VH: B1 VH
VL: B1 VL
modifications: Deamidation at Asn384 in HC; ratio not given
B8: nemolizumab AE-HPLC fraction, peaks a2 + a3 (Post-Region) (antibody, V domains shown)
VH: B1 VH
VL: B1 VL
B9: nemolizumab AE-HPLC fraction, peak a6 (Post-Region) (antibody, V domains shown)
VH: B1 VH
VL: B1 VL
modifications: Deamidation at Asn55 in the CDRs of the heavy chain, 14.9%

Target: T1, human IL-31R (IL-31 receptor) expressed …
Assay: cell-based or functional assay

Binder | Relative biological activity compared to CIM331 reference material (%); inhibition of IL-31-dependent proliferation of BaF/hIL-31R cells [%] | Relative biological activity compared to main peak (%); inhibition of IL-31-dependent proliferation of BaF/hIL-31R cells [%]
B1 | 23 | 21
B2 | 88 | 79
B3 | 90 | 82
B4 | 89 | 80
B5 | 45 | 41
B6 | 73 | 66
B7 | 110 | 100
B8 | 110 | 100
B9 | 94 | 85
